Reference: US20250011418A1 (ZIELBIO, published 2025)

T1: Sec8-His (section 8 (Sec8), an antigenic region of CSP-1, tagged with a polyhistidine (His) tag)
T1 construct: also called Sec8-His antigen
T1 chain: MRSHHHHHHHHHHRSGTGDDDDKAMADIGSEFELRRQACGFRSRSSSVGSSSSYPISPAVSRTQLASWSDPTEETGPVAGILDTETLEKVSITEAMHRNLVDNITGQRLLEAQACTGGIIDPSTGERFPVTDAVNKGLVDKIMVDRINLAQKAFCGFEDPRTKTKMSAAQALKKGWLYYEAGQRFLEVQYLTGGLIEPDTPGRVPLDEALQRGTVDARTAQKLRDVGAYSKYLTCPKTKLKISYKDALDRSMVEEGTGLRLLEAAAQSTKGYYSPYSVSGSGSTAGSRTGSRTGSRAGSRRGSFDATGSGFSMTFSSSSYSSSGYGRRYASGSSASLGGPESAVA

B1: humanized anti-CSP-1 antibody, Antibody Number 22 (Table 1) (antibody, human IgG1, V domains shown)
VH: EVQLVESGGDLVKPGGSLKLSCAASGFTFSRYGMSWVRQTPDKRLEWVATISIGGTYTYYPDSMKGRFTISRDNAKNTLYLQMSSLKSEDTAMYYCARRGYGNYSYYGMDYWGQGTSVTVSS
VL: DIVMTQAAFSNPVTLGTSASISCRSSKSLLHSSGITYLYWYLQKPGQSPQLLIYQMSNLASGVPDRFSSSGSGTDFTLRISRVEAEDVGVYYCAQNLELPLTFGAGTKLELK
notes: also called Antibody 22
B2: humanized anti-CSP-1 antibody, Antibody Number 36 (Table 1) (antibody, human IgG1, V domains shown)
VH: EVQLVESGGGLVQPGGSLRLSCAASGFTFSRYGMSWVRQAPGKRLEWVATISIGGTYTYYPDSMKGRFTISRDNSKNTLYLQMNSLRAEDTAMYYCARRGYGNYSYYGMDYWGQGTLVTVSS
VL: DIVMTQSALSNPVTLGQSASISCRSSKSLLHSNGITYLYWYLQKPGQSPQLLIYQMSNRASGVPDRFSSSGSGTDFTLKISRVEAEDVGVYYCAQNLELPLTFGQGTKLEIK
notes: also called Antibody 36
B3: humanized anti-CSP-1 antibody, Antibody Number 38 (Table 1) (antibody, human IgG1, V domains shown)
VH: EVQLVESGGGLVQPGGSLRLSCAASGFTFSRYGMSWVRQAPGKGLEWVATISIGGTYTYYPDSMKGRFTISRDNSKNTLYLQMNSLRAEDTAVYYCARRGYGNYSYYGMDYWGQGTLVTVSS
VL: DIVMTQSALSNPVTLGQSASISCRSSKSLLHSNGITYLYWYLQKPGQSPQLLIYQMSNRASGVPDRFSSSGSGTDFTLKISRVEAEDVGVYYCAQNLELPLTFGQGTKLEIK
notes: also called Antibody 38
B4: humanized anti-CSP-1 antibody, Antibody Number 39 (Table 1) (antibody, human IgG1, V domains shown)
VH: EVQLVESGGGLVQPGGSLRLSCAASGFTFSRYGMSWVRQAPGKGLEWVATISIGGTYTYYPDSMKGRFTISRDNSKNTLYLQMNSLRAEDTAVYYCARRGYGNYSYYGMDYWGQGTLVTVSS
VL: DIVMTQSALSLPVTLGQSASISCRSSKSLLHSNGITYLYWYLQKPGQSPQLLIYQMSNRASGVPDRFSSSGSGTDFTLKISRVEAEDVGVYYCAQNLELPLTFGQGTKLEIK
notes: also called Antibody 39
B5: humanized anti-CSP-1 antibody, Antibody Number 35 (Table 1) (antibody, human IgG1, V domains shown)
VH: EVQLVESGGEVVKPGASLKLSCKASGFTFSRYGMSWVRQAPGQRLEWVATISIGGTYTYYPDSMKGRFTITRDNSTNTLYLEMSSLRSEDTAMYYCARRGYGNYSYYGMDYWGQGTLVTVSS
VL: DIVMTQSALSNPVTLGQSASISCRSSKSLLHSNGITYLYWYLQKPGQSPQLLIYQMSNRASGVPDRFSSSGSGTDFTLKISRVEAEDVGVYYCAQNLELPLTFGQGTKLEIK
notes: also called Antibody 35
B6: humanized anti-CSP-1 antibody, Antibody Number 37 (Table 1) (antibody, human IgG1, V domains shown)
VH: EVQLVESGGGLVQPGGSLRLSCAASGFTFSRYGMSWVRQAPGKRLEWVATISIGGTYTYYPDSMKGRFTISRDNSKNTLYLQMNSLRAEDTAMYYCARRGYGNYSYYGMDYWGQGTLVTVSS
VL: DIVMTQSALSLPVTLGQSASISCRSSKSLLHSNGITYLYWYLQKPGQSPQLLIYQMSNRASGVPDRFSSSGSGTDFTLKISRVEAEDVGVYYCAQNLELPLTFGQGTKLEIK
notes: also called Antibody 37
B7: humanized anti-CSP-1 antibody, Antibody Number 30 (Table 1) (antibody, human IgG1, V domains shown)
VH: EVQLVESGGEVVKPGASLKLSCKASGFTFSRYGMSWVRQAPGQRLEWVATISIGGTYTYYPDSMKGRFTITRDNSTNTLYLEMSSLRSEDTAMYYCARRGYGNYSYYGMDYWGQGTLVTVSS
VL: DIVMTQAAFSNPVTLGTSASISCRSSKSLLHSNGITYLYWYLQKPGQSPQLLIYQMSNLASGVPDRFSSSGSGTDFTLRISRVEAEDVGVYYCAQNLELPLTFGAGTKLELK
notes: also called Antibody 30
B8: humanized anti-CSP-1 antibody, Antibody Number 33 (Table 1) (antibody, human IgG1, V domains shown)
VH: EVQLVESGGDLVKPGGSLKLSCAASGFTFSRYGMSWVRQTPDKRLEWVATISIGGTYTYYPDSMKGRFTISRDNAKNTLYLQMSSLKSEDTAMYYCARRGYGNYSYYGMDYWGQGTSVTVSS
VL: DIVMTQSALSNPVTLGQSASISCRSSKSLLHSNGITYLYWYLQKPGQSPQLLIYQMSNRASGVPDRFSSSGSGTDFTLKISRVEAEDVGVYYCAQNLELPLTFGQGTKLEIK
notes: also called Antibody 33
B9: humanized anti-CSP-1 antibody, Antibody Number 26 (Table 1) (antibody, human IgG1, V domains shown)
VH: EVQLVESGGDLVKPGGSLKLSCAASGFTFSRYGMSWVRQTPDKRLEWVATISIGGTYTYYPDSMKGRFTISRDNAKNTLYLQMSSLKSEDTAMYYCARRGYGNYSYYGMDYWGQGTSVTVSS
VL: DIVMTQAAFSNPVTLGTSASISCRSSKSLLHSEGITYLYWYLQKPGQSPQLLIYQMSNLASGVPDRFSSSGSGTDFTLRISRVEAEDVGVYYCAQNLELPLTFGAGTKLELK
notes: also called Antibody 26
B10: humanized anti-CSP-1 antibody, Antibody Number 31 (Table 1) (antibody, human IgG1, V domains shown)
VH: EVQLVESGGGLVQPGGSLRLSCAASGFTFSRYGMSWVRQAPGKRLEWVATISIGGTYTYYPDSMKGRFTISRDNSKNTLYLQMNSLRAEDTAMYYCARRGYGNYSYYGMDYWGQGTLVTVSS
VL: DIVMTQAAFSNPVTLGTSASISCRSSKSLLHSNGITYLYWYLQKPGQSPQLLIYQMSNLASGVPDRFSSSGSGTDFTLRISRVEAEDVGVYYCAQNLELPLTFGAGTKLELK
notes: also called Antibody 31
B11: humanized anti-CSP-1 antibody, Antibody Number 25 (Table 1) (antibody, human IgG1, V domains shown)
VH: EVQLVESGGDLVKPGGSLKLSCAASGFTFSRYGMSWVRQTPDKRLEWVATISIGGTYTYYPDSMKGRFTISRDNAKNTLYLQMSSLKSEDTAMYYCARRGYGNYSYYGMDYWGQGTSVTVSS
VL: DIVMTQAAFSNPVTLGTSASISCRSSKSLLHSQGITYLYWYLQKPGQSPQLLIYQMSNLASGVPDRFSSSGSGTDFTLRISRVEAEDVGVYYCAQNLELPLTFGAGTKLELK
notes: also called Antibody 25
B12: humanized anti-CSP-1 antibody, Antibody Number 28 (Table 1) (antibody, human IgG1, V domains shown)
VH: EVQLVESGGDLVKPGGSLKLSCAASGFTFSRYGMSWVRQTPDKRLEWVATISIGGTYTYYPDSMKGRFTISRDNAKNTLYLQMSSLKSEDTAMYYCARRGYGNYSYYGMDYWGQGTSVTVSS
VL: DIVMTQAAFSNPVTLGTSASISCRSSKSLLHSNGITYLYWYLQKPGQSPQLLIYQLSNLASGVPDRFSSSGSGTDFTLRISRVEAEDVGVYYCAQNLELPLTFGAGTKLELK
notes: also called Antibody 28
B13: humanized anti-CSP-1 antibody, Antibody Number 24 (Table 1) (antibody, human IgG1, V domains shown)
VH: EVQLVESGGDLVKPGGSLKLSCAASGFTFSRYGMSWVRQTPDKRLEWVATISIGGTYTYYPDSMKGRFTISRDNAKNTLYLQMSSLKSEDTAMYYCARRGYGNYSYYGMDYWGQGTSVTVSS
VL: DIVMTQAAFSNPVTLGTSASISCRSSKSLLHSDGITYLYWYLQKPGQSPQLLIYQMSNLASGVPDRFSSSGSGTDFTLRISRVEAEDVGVYYCAQNLELPLTFGAGTKLELK
notes: also called Antibody 24
B14: humanized anti-CSP-1 antibody, Antibody Number 23 (Table 1) (antibody, human IgG1, V domains shown)
VH: EVQLVESGGDLVKPGGSLKLSCAASGFTFSRYGMSWVRQTPDKRLEWVATISIGGTYTYYPDSMKGRFTISRDNAKNTLYLQMSSLKSEDTAMYYCARRGYGNYSYYGMDYWGQGTSVTVSS
VL: DIVMTQAAFSNPVTLGTSASISCRSSKSLLHSVGITYLYWYLQKPGQSPQLLIYQMSNLASGVPDRFSSSGSGTDFTLRISRVEAEDVGVYYCAQNLELPLTFGAGTKLELK
notes: also called Antibody 23
B15: humanized anti-CSP-1 antibody, Antibody Number 27 (Table 1) (antibody, human IgG1, V domains shown)
VH: EVQLVESGGDLVKPGGSLKLSCAASGFTFSRYGMSWVRQTPDKRLEWVATISIGGTYTYYPDSMKGRFTISRDNAKNTLYLQMSSLKSEDTAMYYCARRGYGNYSYYGMDYWGQGTSVTVSS
VL: DIVMTQAAFSNPVTLGTSASISCRSSKSLLHSNGITYLYWYLQKPGQSPQLLIYQVSNLASGVPDRFSSSGSGTDFTLRISRVEAEDVGVYYCAQNLELPLTFGAGTKLELK
notes: also called Antibody 27
B16: humanized anti-CSP-1 antibody, Antibody Number 32 (Table 1) (antibody, human IgG1, V domains shown)
VH: EVQLVESGGGLVQPGGSLRLSCAASGFTFSRYGMSWVRQAPGKGLEWVATISIGGTYTYYPDSMKGRFTISRDNSKNTLYLQMNSLRAEDTAVYYCARRGYGNYSYYGMDYWGQGTLVTVSS
VL: DIVMTQAAFSNPVTLGTSASISCRSSKSLLHSNGITYLYWYLQKPGQSPQLLIYQMSNLASGVPDRFSSSGSGTDFTLRISRVEAEDVGVYYCAQNLELPLTFGAGTKLELK
notes: also called Antibody 32
B17: humanized anti-CSP-1 antibody, Antibody Number 34 (Table 1) (antibody, human IgG1, V domains shown)
VH: EVQLVESGGDLVKPGGSLKLSCAASGFTFSRYGMSWVRQTPDKRLEWVATISIGGTYTYYPDSMKGRFTISRDNAKNTLYLQMSSLKSEDTAMYYCARRGYGNYSYYGMDYWGQGTSVTVSS
VL: DIVMTQSALSLPVTLGQSASISCRSSKSLLHSNGITYLYWYLQKPGQSPQLLIYQMSNRASGVPDRFSSSGSGTDFTLKISRVEAEDVGVYYCAQNLELPLTFGQGTKLEIK
notes: also called Antibody 34
B18: humanized anti-CSP-1 antibody, Antibody Number 29 (Table 1) (antibody, human IgG1, V domains shown)
VH: EVQLVESGGDLVKPGGSLKLSCAASGFTFSRYGMSWVRQTPDKRLEWVATISIGGTYTYYPDSMKGRFTISRDNAKNTLYLQMSSLKSEDTAMYYCARRGYGNYSYYGMDYWGQGTSVTVSS
VL: DIVMTQAAFSNPVTLGTSASISCRSSKSLLHSNGITYLYWYLQKPGQSPQLLIYQISNLASGVPDRFSSSGSGTDFTLRISRVEAEDVGVYYCAQNLELPLTFGAGTKLELK
notes: also called Antibody 29

Target: T1, Sec8-His (section 8 (Sec8), an …)
Test: BLI (Octet), single shot: antibody on anti-human IgG tips, 24 nM Sec8-His
Procedure: After humanization, the antibodies were tested for their capability to bind to an antigenic region of CSP-1 called section 8 (Sec8). Antigen binding was assessed by single-shot Octet analysis. Antibodies were loaded onto anti-human IgG tips, and the loaded tips were dipped into wells containing the Sec8-His antigen. Scouting experiments were used to determine ideal conditions for loading (10 minute incubation in 1 μg/mL IgG) and antigen binding (5 minute incubation in 24 nM Sec8-His, followed by a 5 minute dissociation step in buffer). Two negative controls were included with each experiment. First, a tip was loaded with irrelevant IgG dipped into 24 nM Sec8-His to control for non-specific interactions between the tip and the antigen. Next, tips loaded with humanized 1D7 variants were dipped into 24 nM GST-His to control for off-target binding of the antibody (a significant risk if a given variant is destabilized and/or exposes significant hydrophobic surface). The data from the irrelevant IgG control were subtracted from the data obtained with the […]-loaded tips. The mean and standard deviation of the signal change values for the GST-His control wells were used to calculate a threshold for positive binding (mean+3 standard deviations of the GST-His signal). Variants that were below this threshold are considered to have no specific binding to Sec8.
B1: binds. B2: binds. B3: binds. B4: binds. B5: binds. B6: binds. B7: binds. B8: binds. B9: binds. B10: binds. B11: binds. B12: binds. B13: binds. B14: binds. B15: binds. B16: binds. B17: binds. B18: binds.
